Reference: patent WO2018134389A1 (dated 2018)

B1: DC-SIGN CRD single point mutant S360A, stably expressed on HEK293T cells (receptor)
chain: MSDSKEPRLQQLGLLEEEQLRGLGFRQTRGYKSLAGCLGHGPLVLQLLSFTLLAGLLVQVSKVPSSISQEQSRQDAIYQNLTQLKAAVGELSEKSKLQEIYQELTQLKAAVGELPEKSKLQEIYQELTRLKAAVGELPEKSKLQEIYQELTWLKAAVGELPEKSKMQEIYQELTRLKAAVGELPEKSKQQEIYQELTRLKAAVGELPEKSKQQEIYQELTRLKAAVGELPEKSKQQEIYQELTQLKAAVERLCHPCPWEWTFFQGNCYFMSNSQRNWHDSITACKEVGAQLVVIKSAEEQNFLQLQSSRSNRFTWMGLSDLNQEGTWQWVDGSPLLPSFKQYWNRGEPNNVGEEDCAEFAGNGWNDDKCNLAKFWICKKSAASCSRDEEQFLSPAPATPNPPPA
notes: whole, on cells
B2: DC-SIGN CRD single point mutant D367A, stably expressed on HEK293T cells (receptor)
chain: MSDSKEPRLQQLGLLEEEQLRGLGFRQTRGYKSLAGCLGHGPLVLQLLSFTLLAGLLVQVSKVPSSISQEQSRQDAIYQNLTQLKAAVGELSEKSKLQEIYQELTQLKAAVGELPEKSKLQEIYQELTRLKAAVGELPEKSKLQEIYQELTWLKAAVGELPEKSKMQEIYQELTRLKAAVGELPEKSKQQEIYQELTRLKAAVGELPEKSKQQEIYQELTRLKAAVGELPEKSKQQEIYQELTQLKAAVERLCHPCPWEWTFFQGNCYFMSNSQRNWHDSITACKEVGAQLVVIKSAEEQNFLQLQSSRSNRFTWMGLSDLNQEGTWQWVDGSPLLPSFKQYWNRGEPNNVGEEDCAEFSGNGWNDAKCNLAKFWICKKSAASCSRDEEQFLSPAPATPNPPPA
notes: whole, on cells
B3: DC-SIGN CRD single point mutant V351A, stably expressed on HEK293T cells (receptor)
chain: MSDSKEPRLQQLGLLEEEQLRGLGFRQTRGYKSLAGCLGHGPLVLQLLSFTLLAGLLVQVSKVPSSISQEQSRQDAIYQNLTQLKAAVGELSEKSKLQEIYQELTQLKAAVGELPEKSKLQEIYQELTRLKAAVGELPEKSKLQEIYQELTWLKAAVGELPEKSKMQEIYQELTRLKAAVGELPEKSKQQEIYQELTRLKAAVGELPEKSKQQEIYQELTRLKAAVGELPEKSKQQEIYQELTQLKAAVERLCHPCPWEWTFFQGNCYFMSNSQRNWHDSITACKEVGAQLVVIKSAEEQNFLQLQSSRSNRFTWMGLSDLNQEGTWQWVDGSPLLPSFKQYWNRGEPNNAGEEDCAEFSGNGWNDDKCNLAKFWICKKSAASCSRDEEQFLSPAPATPNPPPA
notes: whole, on cells
B4: Sambucus Nigra Agglutinin (other)
chain: VTPPVYPSVSFNLTGADTYEPFLRALQEKVILGNHTAFDLPVLNPESQVSDSNRFVLVPLTNPSGDTVTLAIDVVNLYVVAFSSNGKSYFFSGSTAVQRDNLFVDTTQEELNFTGNYTSLERQVGFGRVYIPLGPKSLDQAISSLRTYTLTAGDTKPLARGLLVVIQMVSEAARFRYIELRIRTSITDASEFTPDLLMLSMENNWSSMSSEIQQAQPGGIFAGVVQLRDERNNSIEVTNFRRLFELTYIAVLLYGCAPVTSSSYSNNAIDAQIIKMPVFRGGEYEKVCSVVEVTRRISGWDGLCVDVRYGHYIDGNPVQLRPCGNECNQLWTFRTDGTIRWLGKCLTASSSVMIYDCNTVPPEATKWVVSIDGTITNPHSGLVLTAPQAAEGTALSLENNIHAARQGWTVGDVEPLVTFIVGYKQMCLRENGENNFVWLEDCVLNRVQQEWALYGDGTIRVNSNRSLCVTSEDHEPSDLIVILKCEGSGNQRWVFNTNGTISNPNAKLLMDVAQRDVSLRKIILYRPTGNPNQQWITTTHPA
notes: also called SNA

Legend:
[1] = molecular target: T1, Recombinant HIV-1 IIIB gp120 derived from CHO cells (ImmunoDx) (HIV-1 IIIB, UniProt P04578 33-511); assay: flow cytometry on HEK293T point-mutant transfectants
T1 construct: also called HIV-1 IIIB gpl20; HIV-1 gp120

[2] = molecular target: T1, Recombinant HIV-1 IIIB gp120 derived …; assay: lectin-functionalized plate, labelled glycoprotein, fluorescence read-out

Binder	binding result [1]	binding result [2]
B1	binds	–
B2	binds	–
B3	binds	–
B4	–	no binding (tested: 10, 2 and 0.4 μg/ml)
